The source of these data is US20240269252A1, “COMPOSITIONS FOR INDUCING AN IMMUNE RESPONSE” (President and Fellows of Harvard College, priority 2017, published 2024).

The data set in a line: Biomolecule release quantification: incorporation efficiency and release kinetics of CpG ODN, GM-CSF and antigen from cryogel vaccines. Format: physicochemical. The note with it: for encapsulation efficiency: encapsulated in vaccine cryogel by cryo-polymerization.

As for “5′-TCCATGACGTTCCTGACGTT-3′ [CpG-ODN, reference compound]”, the encapsulation efficiency is 48%. Besides, the “CpG-ODN eluted from the hydrogel” value (within the first 2 days) is 50%.
Regarding “granulocyte-macrophage colony-stimulating factor [GM-CSF]”, the encapsulation efficiency was 87%. In addition, the “burst release of the loaded amount” value (GM-CSF from vaccine cryogel, in vitro) is “about 8%”. Besides, under “over the first 5 days in vitro”, the GM-CSF released stood at 85%.
